Measurements as given in patent publication US20100004432, “APTAMER AGAINST MIDKINE AND USE THEREOF” (RIBOMIC INC., published 2010).

T1: midkine (full-length) (Homo sapiens, UniProt P21741 P21741:23-143)
T1 sequence: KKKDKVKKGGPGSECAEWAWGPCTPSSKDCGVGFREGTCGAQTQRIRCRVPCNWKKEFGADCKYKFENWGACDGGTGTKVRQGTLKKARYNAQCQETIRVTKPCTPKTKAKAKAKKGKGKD


Target: T1, midkine (full-length)
Test: cell_activity; 500 nM RNA
Conditions: tags: expressed in yeast
Description: Chem. 276 (19), 15868-15875, 2001). […] 30 μL of 1.5 μM midkine was applied to the outer surface of the membrane of Chemotaxicell (membrane pore diameter 8 μm, manufactured by Kurabo) to immobilize the midkine to the outer surface of the membrane. The midkine-immobilized Chemotaxicell was placed on a 24-well culture plate containing 500 μL of a medium (supplemented with 0.3% bovine serum albumin, Dulbecco's Modified Eagle's medium) supplemented with each RNA aptamer added thereto at 100 nM. 200 μL of UMR106 cells were placed in the inner layer of the Chemotaxicell chamber at a density of 1×10⁶ cells/mL, and cultured at 37° C. for 4 hours. The cells remaining in the inner layer of the Chemotaxicell chamber were removed, and the cells that had infiltrated and adhered to the midkine-applied surface were fixed with methanol. The Chemotaxicell chamber was immersed in a 1% aqueous solution of Crystal Violet for 30 minutes to stain the cells. After the Chemotaxicell chamber was washed with distilled water and dried, the pigment was extracted with a mixed solution of 200 μL of 1% SDS and 1% triton X100. 150 μL of the extract was transferred to a 96-well microplate, and its absorbance at 590 nm was determined.
(§1) The aptamer shown by SEQ ID NO:4 is 77 nucleotides long, having the 2′ position of the ribose of the pyrimidine nucleotide thereof fluoro-substituted. To enable the chemical synthesis, to reduce the toxicity, and to improve the stability in the blood, miniaturization and stabilization of this aptamer were performed. The operations of miniaturization and stabilization were performed on the basis of the secondary structure estimated by the MFOLD program, and the activity was evaluated by a cell migration inhibition experiment. In the cell migration inhibition experiment, the RNA concentration was 100 nM or 500 nM. Since some errors occur in experimental results depending on cell condition, a previously assayed sample was included as a positive control in each measurement.

Binder | activity
SEQ ID NO:9 (ssRNA, 2'-F pyrimidines) RNA: GGGAGAGGAGAAGAGGAACGUGCUCUGUACGCCGGAAAGAAGGUGUGUAGAGGACAGGAAUGAGGA | 57 % of SEQ 4 inhibition
SEQ ID NO:11 (ssRNA, 2'-F pyrimidines) RNA: GGGAGAGGAGAAGAGGAACGUGCUCUGCACGAGGAGUAGCCGGAAAGAAGGCGGCGUGCAGAGGACAGGAAUGAGGA | 100 % of SEQ 4 inhibition
GGGCUACGAGGAGUAGCCGGAAAGAAGGCGGCGUAGC (ssRNA, 2'-F pyrimidines) [SEQ ID NO:18] | 88 % of SEQ 4 inhibition
GGGAGAGGAACGUACGAGGAGUAGCCGGAAAGAAGGCGGCGUAC (ssRNA, 2'-F pyrimidines) [SEQ ID NO:19] | 94 % of SEQ 4 inhibition
SEQ ID NO:16 (ssRNA, 2'-F pyrimidines) RNA: GGGAGAGGAGAAGAGGAACGCUGCACGAGGGUAGCCGGAAAGAAGGCGGCGUGCAGC | 61 % of SEQ 4 inhibition
SEQ ID NO:6 (ssRNA, 2'-F pyrimidines) RNA: GGGAGAGGAGAAGAGGAACGUGCUCUGUACGAGGAGUAGCCGGAAAGAAGGCGGUGUGUAGAGGACA | 110 % of SEQ 4 inhibition
SEQ ID NO:7 (ssRNA, 2'-F pyrimidines) RNA: GGGAACGUGCUCUGUACGAGGAGUAGCCGGAAAGAAGGCGGUGUGUAGAGGACAGGAAUGAGGA | 91 % of SEQ 4 inhibition
SEQ ID NO:12 (ssRNA, 2'-F pyrimidines) RNA: GGGAGAGGAGAAGAGGAACGCUGCACGAGGAGUAGCCGGAAAGAAGGCGGCGUGCAGC | 100 % of SEQ 4 inhibition
SEQ ID NO:8 (ssRNA, 2'-F pyrimidines) RNA: GGGAGAGGAGAAGAGGAACGCUGUACGAGGAGUAGCCGGAAAGAAGGCGGUGUGUAGCAGGAAUGAGGA | 100 % of SEQ 4 inhibition
SEQ ID NO:15 (ssRNA, 2'-F pyrimidines) RNA: GGGAGAGGAGAAGAGGAACGCUGCACGAGGAGUAGCCGGAAAGGGCGGCGUGCAGC | 75 % of SEQ 4 inhibition
GGGAGAGGAACGCUGCACGAGGAGUAGCCGGAAAGAAGGCGGCGUGCAGC (ssRNA, 2'-F pyrimidines) [SEQ ID NO:13] | 100 % of SEQ 4 inhibition
SEQ ID NO:10 (ssRNA, 2'-F pyrimidines) RNA: GGGAGAGGAGAAGAGGAACGUGCUCUGUACGAGGAGUAGCCGAAAGGCGGUGUGUAGAGGACAGGAAUGAGGA | 81 % of SEQ 4 inhibition
SEQ ID NO:14 (ssRNA, 2'-F pyrimidines) RNA: GGGAGAGGAGAAGAGGAACGCUACGAGGAGUAGCCGGAAAGAAGGCGGCGUAGC | 100 % of SEQ 4 inhibition
GGGAGAGGAACGCUACGAGGAGUAGCCGGAAAGAAGGCGGCGUAGC (ssRNA, 2'-F pyrimidines) [SEQ ID NO:17] | 68 % of SEQ 4 inhibition

Target: T1, midkine (full-length)
Test: cell_activity; 500 nM RNA
Conditions: tags: expressed in yeast
Remark: another data set of the same source
Description: 30 μL of 1.5 μM midkine was applied to the outer surface of the membrane of Chemotaxicell (membrane pore diameter 8 μm, manufactured by Kurabo) to immobilize the midkine to the outer surface of the membrane. The midkine-immobilized Chemotaxicell was placed on a 24-well culture plate containing 500 μL of a medium (supplemented with 0.3% bovine serum albumin, Dulbecco's Modified Eagle's medium) supplemented with each RNA aptamer added thereto at 100 nM. 200 μL of UMR106 cells were placed in the inner layer of the Chemotaxicell chamber at a density of 1×10⁶ cells/mL, and cultured at 37° C. for 4 hours. The cells remaining in the inner layer of the Chemotaxicell chamber were removed, and the cells that had infiltrated and adhered to the midkine-applied surface were fixed with methanol. The Chemotaxicell chamber was immersed in a 1% aqueous solution of Crystal Violet for 30 minutes to stain the cells. After the Chemotaxicell chamber was washed with distilled water and dried, the pigment was extracted with a mixed solution of 200 μL of 1% SDS and 1% triton X100. 150 μL of the extract was transferred to a 96-well microplate, and its absorbance at 590 nm was determined.
as §1, with “NO:5” for “NO:4”, “2′-position” for “2′ position”, “nucleotide” for “nucleotide thereof”, “The RNA concentration in” for “In”, “experiment” for “experiment, the RNA concentration”

Binder | activity
GGGAAGGAGGAAGUGCACAGGGGUUGGUGUCGGGUGCAC (ssRNA, 2'-F pyrimidines) [SEQ ID NO:61] | 100 % of SEQ 40 inhibition
GGGAAGGAGGAAGUGCACAGGGGUUGGAGUCGGGUGCAC (ssRNA, 2'-F pyrimidines; 2'-OMe on part of purines (5' strand A, stem purines, loop G, A28)) [SEQ ID NO:68] | 72 % of SEQ 40 inhibition
GGGAAGGAGGAAGUGCACAGGGGAUGGUGUCGGGUGCAC (ssRNA, 2'-F pyrimidines; 2'-OMe on part of purines (5' strand A, stem purines, loop G, A24)) [SEQ ID NO:70] | 110 % of SEQ 40 inhibition
GGGAGAGGAGAAGUGCACAGGGGUUGGUGUCGGGUGCAC (ssRNA, 2'-F pyrimidines) [SEQ ID NO:62] | 44 % of SEQ 40 inhibition
GGGAAGGAGGAAGUGCACAGGGGUAGGUGUCGGGUGCAC (ssRNA, 2'-F pyrimidines; 2'-OMe on part of purines (5' strand A, stem purines, loop G, A25)) [SEQ ID NO:69] | 60 % of SEQ 40 inhibition
GGGUGCACAGGGGUUGGUGUCGGGUGCAC (ssRNA, 2'-F pyrimidines) [SEQ ID NO:59] | 53 % of SEQ 40 inhibition
GGGAAGGAGUGCACAGGGGUUGGUGUCGGGUGCAC (ssRNA, 2'-F pyrimidines) [SEQ ID NO:60] | 70 % of SEQ 40 inhibition
GGGAGAGGAGAAGAGGAAGUGCGCGCAGGGGUUGGUGUCGGGCGCGUAC (ssRNA, 2'-F pyrimidines) [SEQ ID NO:46] | 92 % of SEQ 40 inhibition
GGGAGAGGAGAAGAGGAAGUGCACAGGGGUUGGUGUCGGGUGCAC (ssRNA, 2'-F pyrimidines; 5' single strand (nt 1-18) all G 2'-F and all A 2'-OMe) [SEQ ID NO:54] | 100 % of SEQ 40 inhibition
GGGAGAGGAGAAGAGGAAGUGCACAGGGGUUGGUGUCGGGUGCAC (ssRNA, 2'-F pyrimidines) [SEQ ID NO:45] | 100 % of SEQ 40 inhibition
GGGAGAGGAGAAGAGGAAGUGCACCCGGGUUGGUGUCGGGUGCAC (ssRNA, 2'-F pyrimidines) [SEQ ID NO:63] | 97 % of SEQ 40 inhibition
GGGAGAGGAGGAGGAAGUGCACAGGGGUUGGUGUCGGGUGCAC (ssRNA, 2'-F pyrimidines) [SEQ ID NO:55] | 100 % of SEQ 40 inhibition
GGGAGAGGAGAAGAGGGUGCACAGGGGUUGGUGUCGGGUGCAC (ssRNA, 2'-F pyrimidines) [SEQ ID NO:58] | 100 % of SEQ 40 inhibition
GGGAGAGGAGAAGGAAGUGCACAGGGGUUGGUGUCGGGUGCAC (ssRNA, 2'-F pyrimidines) [SEQ ID NO:56] | 100 % of SEQ 40 inhibition
GGGAGAGGAGAAGAAAGUGCACAGGGGUUGGUGUCGGGUGCAC (ssRNA, 2'-F pyrimidines) [SEQ ID NO:57] | 100 % of SEQ 40 inhibition
GGGAAGGAAAGAGGAAGUGCACAGGGGUUGGUGUCGGGUGCAC (ssRNA, 2'-F pyrimidines) [SEQ ID NO:50] | 91 % of SEQ 40 inhibition
GGAAGGAGGAAGUGCACAGGGGUUGGUGUCGGGUGCAC (ssRNA, g(F)g(F)a(M)a(M)g(F)g(F)a(M)g(F)g(F)a(M)a(M)g(M)u(F)g(M)c(F)a(M)c(F)a(M)gg(M)g(M)g(M)u(F)u(F)g(M)g(M)u(F)g(M)u(F)c(F)g(F)g(F)g(M)u(F)g(M)c(F)a(M)c(F); F=2'-F M=2'-OMe) [SEQ ID NO:66] | 51 % of SEQ 40 inhibition
GGAAGGAGGAAGUGCACAGGGGUUGGUGUCGGGUGCAC (ssRNA, gga(M)a(M)gga(M)gga(M)a(M)g(M)u(F)g(M)c(F)a(M)c(F)aggg(M)g(M)u(F)u(F)g(M)g(M)u(F)g(M)u(F)c(F)gggu(F)g(M)c(F)a(M)c(F); F=2'-F M=2'-OMe) [SEQ ID NO:67] | 110 % of SEQ 40 inhibition
SEQ ID NO:51 (ssRNA, 2'-F pyrimidines) RNA: GGGAAGGAGAGAGGAAGUGCACAGGGGUUGGUGUCGGGUGCACAGUAUAAG | 100 % of SEQ 40 inhibition
SEQ ID NO:52 (ssRNA, 2'-F pyrimidines) RNA: GGAAGGAGAAGAGGAAGUGCACAGGGGUUGGUGUCGGGUGCACAGUAUAAG | 100 % of SEQ 40 inhibition
SEQ ID NO:53 (ssRNA, 2'-F pyrimidines) RNA: GGGAAGGAAAGAGGAAGUGCACAGGGGUUGGUGUCGGGUGCACAGUAUAAG | 100 % of SEQ 40 inhibition
GGGAGAGGAGAAGAGGAAGUGUGCACAGGGGUGGUGUCGGGUGCAUAC (ssRNA, 2'-F pyrimidines) [SEQ ID NO:47] | 84 % of SEQ 40 inhibition
GGGAGAGGAGAAGAGGAAGUGUGCACAGGGGUUGGGUCGGGUGCAUAC (ssRNA, 2'-F pyrimidines) [SEQ ID NO:49] | 69 % of SEQ 40 inhibition
GGGAGAGGAGAAGAGGAAGUGUGCACAGGGGUUGUGUCGGGUGCAUAC (ssRNA, 2'-F pyrimidines) [SEQ ID NO:48] | 60 % of SEQ 40 inhibition
GGGAGAGGAGAAGAGGAAGUUGCACAGGGGUUGGUGUCGGGUGCAAC (ssRNA, 2'-F pyrimidines) [SEQ ID NO:44] | 100 % of SEQ 40 inhibition
